{
  "source": "the nanobody polyreactivity screen of Harvey et al. (2022)",
  "data": [
    {"assay": "yeast display, Sf9 membrane polyspecificity reagent, FACS + sequencing; frameworks hold sequencing errors", "how_it_was_run": "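Polyreactivity labels are assigned by the sorting gate from which each nanobody was recovered. The gates were low and high (top ~1%), set on anti-HA fluorescence for expression and streptavidin fluorescence for reagent binding. Before sorting, galactose-induced (36–48 hours) yeast display cells were stained for 1 hour at 4 °C with 10% biotinylated, detergent-solubilized Sf9 membrane reagent.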", "values": [
      {"sequence": "QVQLVESGGGLVQAGGSLRLSCAASGRMFFRYAMGCYRQAPGKEREFVATITWSGGRTHYADSVKGRFTISRDNAKNTVYLQMNSLKPEDTAVYYCAASYHRYAFDYWGQGTQVTVSS", "polyreactivity (PSR sort gate)": "high polyreactivity"},
      {"sequence": "QVQLVESGGGLVQAGGSLRLSCAASGRMFKYSDMGWYRQAPGKERALVAGISISGSTSYADSVKGRFTISRDNAKNTVYLQMNSLKPEDTAVYYCAADSRGGYPSLYEYDYWGQGTQETVSS", "polyreactivity (PSR sort gate)": "low polyreactivity"},
      {"sequence": "QVQLVESGGGLVQAGGSLRLSCAASGRMFTYYAMGGYRQAPGKERELVAAINRGVVTTYYADSVKGRFTISRDHAKNTVDLQMNSLKPEDTAVYYCAADWFAANYYVNPVSALDYWGQGTQVTVSS", "polyreactivity (PSR sort gate)": "low polyreactivity"},
      {"sequence": "QVQLVESGGGLVQAGGSLRLSCAASGRMGWYRQAPGKERELVAGITSSGRTYYADSVKGRFTISRDNAKNTVYLQMNSLKPEDTAVYYCATYGYWGQGTQVTVSS", "polyreactivity (PSR sort gate)": "high polyreactivity"},
      {"sequence": "QVQLVESGGGLVQAGGSLRLSCAASGRNFALNAMGWYRQAPGKERELLATIRWRGGSTYYADSVKGRFTISRDNAKKTVYLQMNSLKPEDTAVYYCATGPRPYPYDYCGQGTQVTVSS", "polyreactivity (PSR sort gate)": "high polyreactivity"},
      {"sequence": "QVQLVESGGGLVQAGGSLRLSCAASGRNFCNYAMGWYIQAPGKERELVAVIRFSDGSTYYADSVKGRFTISRDNAKNTVYLQMNSLKPEDTAVYYCAAKGPRRWGSGFDYWGQGTQVTVSS", "polyreactivity (PSR sort gate)": "low polyreactivity"},
      {"sequence": "QVQLVESGGGLVQAGGSLRLSCAASGRNFDPYAMGWYRQAPGKERELVASISRGGSTYADSVKGRFTISRDNAKNTVYLQMNRLKPEVTAVYYCNTSLYTEGDAMDYWGQGTQVTVSS", "polyreactivity (PSR sort gate)": "low polyreactivity"},
      {"sequence": "QVQLVESGGGLVQAGGSLRLSCAASGRNFGVYAMGWYRQAPGKERELVARIRGSGASTYYADSVKGRFTISRDNAKNTVYLQMNSLKPEDTAVYYCAAVTVAGYDYWGQGTQVTVSS", "polyreactivity (PSR sort gate)": "high polyreactivity"},
      {"sequence": "QVQLVESGGGLVQAGGSLRLSCAASGRNFILNAMGWYRQAPGKERELVAAISWSGGSTYYADSVKGRFTISRDNAKNTVYLQMNSLKPEDTAVYYCAAETYAYLFHTYDYWGQGTQVTVSS", "polyreactivity (PSR sort gate)": "low polyreactivity"},
      {"sequence": "QVQLVESGGGLVQAGGSLRLSCAASGRNFLIYAMGWYRQAPRKERELVADISTSGGTTYYADSVKGRFTISRDNAKNTVYLQMNSLKPADTAVYYCAAGSHYWKYYSWGQGTQVTVSS", "polyreactivity (PSR sort gate)": "high polyreactivity"},
      {"sequence": "QVQLVESGGGLVQAGGSLRLSCAASGRNFLYNAMGWYRQAPGKERELVAVISKRGGRTYYADSVKGRFTISRDNAKNTVYLQMNSLKPEDTAVYYCAAAYVTPPGPLRYNEYYWGQGTQVTVSS", "polyreactivity (PSR sort gate)": "high polyreactivity"},
      {"sequence": "QVQLVESGGGLVQAGGSLRLSCAASGRNFRWYAMGWYRQAPGKERELVAAITRGDITNYADSVKGRFTISRDNAKKTVYLQMNSLKPEDTAVYYCNAQWYDIYDYWGQGTQVTVSS", "polyreactivity (PSR sort gate)": "high polyreactivity"},
      {"sequence": "QVQLVESGGGLVQAGGSLRLSCAASGRNFSSYAMGWYIQAPGKERELVAAITSGGRTKYADSVKGRFTISRDNAKNTVYLQMNSLKPEDTAVYYCAARNHWVRYLRYDYWGQGTQVTVSS", "polyreactivity (PSR sort gate)": "high polyreactivity"},
      {"sequence": "QVQLVESGGGLVQAGGSLRLSCAASGRNFSYYAMGWYRQAPGKERELVAFISSGGNTYYADSVKGRFTISRDNAKNTVYLPMNSLKPEDTAVYYSGADPNAQGYPQVNYWGQGTQVTVSS", "polyreactivity (PSR sort gate)": "high polyreactivity"},
      {"sequence": "QVQLVESGGGLVQAGGSLRLSCAASGRNFTSNAMGWYRQAPGKERELVAAITQSGGSTYYADSVKGRFTISRDNAKNTVYLQMNSLKPVDTAVYYCNAETTGRTEYNYWGQGTQVTVSS", "polyreactivity (PSR sort gate)": "low polyreactivity"},
      {"sequence": "QVQLVESGGGLVQAGGSLRLSCAASGRNFYGYTMGWYRQAPGKERELVAAITSGGSTYYADSVKGRFTISRDNAKNTVYLQMNSLKPEDTAVYYCNAKYNGYYRRFSEYDYWGQGTQVTVSS", "polyreactivity (PSR sort gate)": "high polyreactivity"},
      {"sequence": "QVQLVESGGGLVQAGGSLRLSCAASGRNFYHYAMGWYRQAPGKEREFVAAISVSGGRTYYADSVKGRFTISRDNAKNTVYLQMNSLKPEDTAVYYCAAEPEWPYGRFDYWGQGTQVTVSS", "polyreactivity (PSR sort gate)": "high polyreactivity"},
      {"sequence": "QVQLVESGGGLVQAGGSLRLSCAASGRNFYYYAMGWYRQAPGKEREFVARNRSSGGSTYADSVKGRFTISRDNAKNTVYLQMNSLKPEDTAVYYCARDGYTAVEYDYWGQGTQVTVSS", "polyreactivity (PSR sort gate)": "low polyreactivity"},
      {"sequence": "QVQLVESGGGLVQAGGSLRLSCAASGRNIYTNAMGWYRQAPGKERELVAAINRSGGITYYADSVKGRFTISRDNAKNTVDLQMNSLKPEDTAVYYCAKDYSWASYNHDYWGQGTQVTVSS", "polyreactivity (PSR sort gate)": "low polyreactivity"},
      {"sequence": "QVQLVESGGGLVQAGGSLRLSCAASGRNLPSYAMGWYRQAPGKERELVAAISGSGGRTYYSDSVKGRFTISRDNAKNTVYLQMNSLKQEDTAVYYCAARQDDYGKINYYWGQGTQVTVSS", "polyreactivity (PSR sort gate)": "high polyreactivity"},
      {"sequence": "QVQLVESGGGLVQAGGSLRLSCAASGRNSPSYAMGWYRQAPGKERELVAAISKRGGTTYYADSVKGRFTISRDNAKNTVYLQMNSLKPEDTAVYYCSARDYSHPTDDNYWGQRTQVTVSS", "polyreactivity (PSR sort gate)": "high polyreactivity"},
      {"sequence": "QVQLVESGGGLVQAGGSLRLSCAASGRNYVYNAMGRYRQAPGKETELVAAITSSGGSTYYADSVKGRFTISRDNAKNSVDLQMNSLKPEDTAVYYCAADVQPDTRSTPEMDYWGQGTQVTVSS", "polyreactivity (PSR sort gate)": "low polyreactivity"},
      {"sequence": "QVQLVESGGGLVQAGGSLRLSCAASGRPFISYAMGWYRQAPGKERELVAAISSSGGSTYYADSVKGRFTMSRDTAKNTVYLQMNSLKPEDTAVYYCNAAKVRRDPAWRLLDYWGQGTQVTVSS", "polyreactivity (PSR sort gate)": "low polyreactivity"},
      {"sequence": "QVQLVESGGGLVQAGGSLRLSCAASGRPFKRYAMGWYRQAPGKEREVVAAITASGGNTYYADSVKGRFTISRDNAKNTVYLQMNSLKPEDTAVYYCARGSYSGGSKYNYWGQGTQVTVSS", "polyreactivity (PSR sort gate)": "high polyreactivity"},
      {"sequence": "QVQLVESGGGLVQAGGSLRLSCAASGRPFPFNAMGWSRQAPGKDRELVAAISGRGGSTYYADSVKGRFTISRDNATNTGSLQRNSQKPEDTAVDYCAARLPWSYYRTQGYNSWGQGTQGTVSS", "polyreactivity (PSR sort gate)": "high polyreactivity"},
      {"sequence": "QVQLVESGGGLVQAGGSLRLSCAASGRPFPGNAMGWYRPAPGKERELVAAISSSGGSTHYADSGKGRFTISRDTAKNTVYLQMNSLKPEDTAVYYCNARSIGYSYRYYDWGQGTQVTVSS", "polyreactivity (PSR sort gate)": "high polyreactivity"},
      {"sequence": "QVQLVESGGGLVQAGGSLRLSCAASGRPFRGNAMGWYRQAPGKERQLVAAITGTGGSTYYADSVKGRFTISRDNAKNTVYLQMNSVKPEDTAVYYCAAVLRGHNGLNFEYWGQGTQVTVSS", "polyreactivity (PSR sort gate)": "high polyreactivity"},
      {"sequence": "QVQLVESGGGLVQAGGSLRLSCAASGRPFYVYAMGWYRQAPGKERELVASIRRSGGITYYADSVKGRFTISRDNAKNTVYLQMNSLKPEDTAVYYCNARRGPGRREYDYWGQGTQVTVSS", "polyreactivity (PSR sort gate)": "high polyreactivity"},
      {"sequence": "QVQLVESGGGLVQAGGSLRLSCAASGRRFVKYAMGWYRQAPGKERELVAAITKSGSSTYYSDSVKGRFTISRDNAKNTVYLQMNSLKPEDTAVYYCAALTISRSRTGYYWGQGTQVTVSS", "polyreactivity (PSR sort gate)": "low polyreactivity"},
      {"sequence": "QVQLVESGGGLVQAGGSLRLSCAASGRSFAWYTMGWYRQAPGKERELVAAISGSGGSTYYADSVKGRFTISRDNAKNTVYLQMNSLKPEDSALYYGARRVDSYYGHTRFYYWGQGTQVTVSS", "polyreactivity (PSR sort gate)": "high polyreactivity"}
    ]}
  ]
}
